Measured values from paper PMC5292684, “High affinity anchoring of the decoration protein pb10 onto the bacteriophage T5 capsid” (Scientific Reports, 2017).
Positions count from the first letter of the chain named. Names may count otherwise.

B1: decoration protein pb10 of bacteriophage T5, full-length, fused to a C-terminal histidine tag (natural protein, UniProt Q6QGD6 1-164, looked up)
chain: MIDYSGLRTIFGEKLPESHIFFATVAAHKYVPSYAFLRRELGLSSAHTNRKVWKKFVEAYGKAIPPAPPAPPLTLSKDLTASMSVEEGAALTLSVTATGGTGPYTYAWTKDGSPIPDASGATYTKPTAAAEDAGSYKVTVTDSKQVSKDSTTCAVTVNPTVPGG
notes: decoration protein pb10 of bacteriophage T5, 164 amino acids, GenBank AAU05286; Monomer by SEC-MALLS (17 kDa); 18.3 kDa with the His tag; also called pb10-His; His-tagged pb10; source: pET28b expression vector, purified (expression and purification detailed in SI); not shown: His-Tag, C-terminal, kept
B2: pb10 N-terminal domain (NTD), residues 1 to 77 (domain or fragment)
chain: MIDYSGLRTIFGEKLPESHIFFATVAAHKYVPSYAFLRRELGLSSAHTNRKVWKKFVEAYGKAIPPAPPAPPLTLSK
B3: pb10 F36A (natural protein)
chain: B1 chain with F36A
B4: pb10 R38A (natural protein)
chain: B1 chain with R38A
B5: pb10 R38E (natural protein)
chain: B1 chain with R38E
B6: pb10 Y34A-R38E (natural protein)
chain: B1 chain with Y34A, R38E
B7: pb10 F36A-R38A (natural protein)
chain: B1 chain with F36A, R38A
B8: pb10 F36A-R38E (natural protein)
chain: B1 chain with F36A, R38E
B9: major capsid protein pb8 of bacteriophage T5 (natural protein, UniProt Q6QGD8 160-458, looked up)
chain: AVNQSSSVEVSSESYETIFSQRIIRDLQKELVVGALFEELPMSSKILTMLVEPDAGKATWVAASTYGTDTTTGEEVKGALKEIHFSTYKLAAKSFITDETEEDAIFSLLPLLRKRLIEAHAVSIEEAFMTGDGSGKPKGLLTLASEDSAKVVTEAKADGSVLVTAKTISKLRRKLGRHGLKLSKLVLIVSMDAYYDLLEDEEWQDVAQVGNDSVKLQGQVGRIYGLPVVVSEYFPAKANSAEFAVIVYKDNFVMPRQRAVTVERERQAGKQRDAYYVTQRVNLQRYFANGVVSGTYAAS
notes: major capsid protein (head protein) pb8 of bacteriophage T5, after its N-terminal scaffolding domain is cleaved off by the protease pb11; as a hexamer of the expanded capsid; Hexamer within the capsid lattice; the deposited model 5TJT is a homology model flexibly fitted into the cryo-EM map; also called head protein

Columns and labels:
[1] = molecular target: bacteriophage T5 empty expanded capsid (without pb10) (bacteriophage T5); experiment: SPR; as a3 but PBS containing 300 mM NaCl; koff set at 2 x 10^-4 s^-1; single experiment
Target sequence in this assay (Q6QGD5 11-403 limits assumed): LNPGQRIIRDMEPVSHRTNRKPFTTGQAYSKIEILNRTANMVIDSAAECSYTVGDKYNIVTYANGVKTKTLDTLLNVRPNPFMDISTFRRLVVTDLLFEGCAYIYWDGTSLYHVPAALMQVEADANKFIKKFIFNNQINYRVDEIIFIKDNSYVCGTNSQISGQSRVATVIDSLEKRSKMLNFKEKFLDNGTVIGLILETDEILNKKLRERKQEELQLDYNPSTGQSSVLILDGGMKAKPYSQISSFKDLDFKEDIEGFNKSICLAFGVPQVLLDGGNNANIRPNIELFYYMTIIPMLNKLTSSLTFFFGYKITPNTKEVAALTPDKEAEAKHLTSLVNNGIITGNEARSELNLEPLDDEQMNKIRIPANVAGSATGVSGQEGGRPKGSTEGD

[2] = molecular target: bacteriophage T5 empty expanded capsid (without pb10) (bacteriophage T5); experiment: SPR; as a3 but PBS containing 500 mM NaCl; koff set at 2 x 10^-4 s^-1; single experiment
Target sequence in this assay (Q6QGD5 11-403 limits assumed): as above

[3] = molecular target: bacteriophage T5 empty expanded capsid (without pb10) (bacteriophage T5); experiment: SPR; as a3 but PBS containing 750 mM NaCl; koff set at 2 x 10^-4 s^-1; single experiment
Target sequence in this assay (Q6QGD5 11-403 limits assumed): as above

[4] = molecular target: B9; experiment: cryo-EM structure; icosahedral reconstructions of empty expanded capsids with pb10 (9 Å) and without pb10 (8 Å); pb8 homology model fitted into the hexamer density; settings: both partners purified
[5] = molecular target: bacteriophage T5 empty expanded capsid (without pb10) (bacteriophage T5); experiment: SPR; T200, 25 °C, PBS (137 mM NaCl) with 1 mg/mL BSA; expanded capsids captured on a CM5 chip through immobilised rabbit anti-capsid antibodies; pb10 variants 0.09 to 40 nM injected at 50 uL/min; koff set at 2 x 10^-4 s^-1 for all proteins; global fit to a Langmuir mass transport-limited model
[6] = molecular target: the molecule itself; experiment: cryo-EM structure; icosahedral reconstructions of empty expanded capsids with pb10 (9 Å) and without pb10 (8 Å); pb8 homology model fitted into the hexamer density

B1
Kd [1]: 1.8 pM
koff [1]: 0.0002 s⁻¹
kon [1]: 1.11e+08 M⁻¹ s⁻¹
Kd [2]: 4.2 pM
koff [2]: 0.0002 s⁻¹
kon [2]: 4.76e+07 M⁻¹ s⁻¹
Kd [3]: 0.0222 nM
koff [3]: 0.0002 s⁻¹
kon [3]: 9.01e+06 M⁻¹ s⁻¹
binding result [4]: binds
Kd [5]: 1.11 pM
koff [5]: 0.0002 s⁻¹
kon [5]: 1.8e+08 M⁻¹ s⁻¹
maximum mass increase of the capsid on decoration [5]: 8%
signal decrease over 700 s of dissociation [5]: 7%

B2
Kd [5]: 0.55 pM
koff [5]: 0.0002 s⁻¹
kon [5]: 3.62e+08 M⁻¹ s⁻¹

B3
Kd [5]: 0.23 pM
koff [5]: 0.0002 s⁻¹
kon [5]: 8.66e+08 M⁻¹ s⁻¹

B4
Kd [5]: 1.67 pM
koff [5]: 0.0002 s⁻¹
kon [5]: 1.2e+08 M⁻¹ s⁻¹

B5
Kd [5]: 2.36 pM
koff [5]: 0.0002 s⁻¹
kon [5]: 8.47e+07 M⁻¹ s⁻¹

B6
Kd [5]: 480 pM
koff [5]: 0.0002 s⁻¹
kon [5]: 417000 M⁻¹ s⁻¹

B7
Kd [5]: 3.27 pM
koff [5]: 0.0002 s⁻¹
kon [5]: 6.11e+07 M⁻¹ s⁻¹

B8
Kd [5]: 10.3 pM
koff [5]: 0.0002 s⁻¹
kon [5]: 1.95e+07 M⁻¹ s⁻¹

B9
stoichiometry N [6]: 6
